Results reported in PMC2789664.
Like-named read-outs stand apart in the source and are kept apart here.

How the values were obtained:
GAPDH wild type [1] = target: T1, GAPDH wild type (Homo sapiens, UniProt P04406 1-335); experiment: competition EMSA
GAPDH wild type [2] = target: T1, GAPDH wild type; experiment: competition EMSA; remark: listed apart in the source
GAPDH wild type [3] = target: T1, GAPDH wild type; experiment: EMSA
GAPDH wild type [4] = target: T1, GAPDH wild type; experiment: competition EMSA; remark: listed apart in the source

T1 sequence (P04406 whole entry): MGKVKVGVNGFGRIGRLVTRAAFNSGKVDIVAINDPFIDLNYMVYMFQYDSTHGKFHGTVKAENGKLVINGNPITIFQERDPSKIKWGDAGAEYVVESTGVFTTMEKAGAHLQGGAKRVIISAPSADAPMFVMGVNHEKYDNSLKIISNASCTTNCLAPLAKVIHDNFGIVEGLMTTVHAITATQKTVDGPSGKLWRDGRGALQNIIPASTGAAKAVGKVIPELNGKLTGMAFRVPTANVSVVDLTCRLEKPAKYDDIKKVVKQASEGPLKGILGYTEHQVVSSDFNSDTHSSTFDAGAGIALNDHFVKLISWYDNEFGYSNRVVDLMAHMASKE

TTAGGCTTAGGCTTAGGC (ssDNA) [ss-(TTAGGC)3]: no binding (GAPDH wild type [1]).

TTTGGGTTTGGGTTTGGG (ssDNA) [ss-(TTTGGG)3]: binds (GAPDH wild type [2]).

ATAGGGATAGGGATAGGG (ssDNA) [ss-(ATAGGG)3]: no binding (GAPDH wild type [1]).

In the case of TTAGGGTTAGGGTTAGGG (ssDNA) [ss-(TTAGGG)3], the Kd (GAPDH wild type [3]) is reported as 70 ± 5 nM.

AGATGTAGCAATAGTAGT (ssDNA) [control 18-mer]: no binding (GAPDH wild type [4]).

TTAGCGTTAGCGTTAGCG (ssDNA) [ss-(TTAGCG)3]: no binding (GAPDH wild type [1]).

For AGGGTTAGGGTTAGGGTT (ssDNA) [ss-(AGGGTT)3], the Kd (GAPDH wild type [3]) was 45 ± 5 nM.
